Test results as given in patent US20060088510A1 (BRIGHAM AND WOMEN S HOSPITAL, published 2006).
No end group written: not given here.

Target: T1, Streptavidin (UniProt P22629 37-163, limits assumed)
T1 construct: also called 35S-streptavidin; Radiolabeled Streptavidin (35S-SLR labeled)
Experiment: radioligand binding assay, 35S-streptavidin on 1:100 biotinylated:nonbiotinylated self-assembling peptides (1% w/v)
Source text: We have previously shown that biotinylated peptides can be synthesized and incorporated with self-assembling (Davis, et al., Circ Res 97: 8-15 (2005)). To allow sufficient distance from the peptide to allow streptavidin binding (Livnah, et al., Proc Natl Acad Sci USA 90:5076-5080 (1993); Pugliese, et al., J. Mol Biol 231:698-710 (1993)), the biotin was attached to the peptide by two N-e-Fmoc-e-aminocaproic acids.

T1 sequence (P22629 37-163 limits assumed): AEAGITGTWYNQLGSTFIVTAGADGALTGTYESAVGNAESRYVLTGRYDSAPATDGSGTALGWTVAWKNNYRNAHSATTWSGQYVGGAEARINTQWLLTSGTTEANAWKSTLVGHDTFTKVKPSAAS

B1: Biotinylated RAD16-II peptide (peptide)
peptide: RARADADARARADADA-NH2
modifications: not fully specified (N-terminus); also: biotin linked via 2 aminocaproic acid groups, attachment residue not given here
notes: Synthetic self-assembling peptide; In the assays it was mixed 1:100 with nonbiotinylated RAD16-II (1% final peptide weight/volume) and assembled into fibers; also called biotinylated self-assembling peptides; biotinylated peptides
B1 gave a Kd of 190 nM.
